{"source": "patent US20230374458A1", "about": "“COMPOSITIONS AND METHODS FOR GENERATING HUMAN YOLK SAC-LIKE HEMATOPOIETIC CELLS” (UNIVERSITY HEALTH NETWORK, priority 2020, published 2023)", "molecules": {"B1": {"name": "Activin A: activin receptor agonist; human Activin A (Uniprot accession number: P08476), recombinant, from R&D Systems (protein, UniProt P08476 311-426, looked up)", "Inhibin beta A chain": "GLECDGKVNICCKKQFFVSFKDIGWNDWIIAPSGYHANYCEGECPSHIAGTSGSSLSFHSTVINHYRMRGHSPFANLKSCCVPTKLRPMSMLYYDDGQNIIKKDIQNMIVEECGCS"}}, "key": {"[1]": {"tested_on": "H1 human embryonic stem cell (hESC) line", "test": "Induction of KDR+CD235a/b+ mesoderm from H1 hESCs (Activin A titration, flow cytometry)", "format": "cell-based", "protocol": "(§1) hPSC differentiation to the hematopoietic lineage was performed in StemPro-34 media supplemented with penicillin/streptomycin (1%, ThermoFisher), L-glutamine (2 mM, ThermoFisher), ascorbic acid (50 μg/mL, Millipore Sigma), transferrin (150 μg/mL, ROCHE), monothioglycerol (50 μg/mL, Millipore Sigma) and other stage-specific factors for example as described below. Differentiation cultures were maintained in hypoxic conditions (37° C., 5% CO2, 5% O2) unless otherwise indicated. On day 0, hPSC cultures at 80-90% confluency were treated with TrypLE for 3 minutes at 37° C. Thereafter, the 80-90% of the TrypLE was aspirated and the cultures were incubated at 37° C. for an additional 2 minutes. […]\n(§2) EBs prior to day 9 of differentiation, monolayer cultures and cultures aggregated after cell sorting were dissociated with Trypsin (Corning) for 5 minutes at 37° C. […] For fluorescence-activated cell sorting (FACS), cells were stained, sorted and collected in StemPro-34 media supplemented with penicillin/streptomycin (1%), L-glutamine (2 mM) and DNaseI. […] Thereafter, the sorted cells were counted and resuspended at 250,000 cells/mL in StemPro-34 media supplemented with recombinant factors appropriate for the day of differentiation. […]"}, "CHOPWT10 human iPSC line": {"tested_on": "CHOPWT10 human iPSC line", "test": "Induction of KDR+CD235a/b+ mesoderm from CHOPWT10 iPSCs (Activin A titration, flow cytometry)", "format": "cell-based", "protocol": "as §1, §2"}}, "data": [{"molecule": "B1", "values": [{"measurement": "proportion of KDR+CD235a/b+ cells", "setting": "[1]; 6 ng/mL Activin A with 10 ng/mL BMP4 and 5 ng/mL FGF2, day 4 of differentiation, H1", "result": "greater than 30%"}, {"measurement": "frequency of CD235a/b+ cells", "setting": "[1]; Activin A 0 to 10 ng/mL with BMP4 10 ng/mL and FGF2 5 ng/mL from day 1 of differentiation", "result": "increased in an Activin A dose-dependent manner and plateaued when its concentration exceeded 6 ng/mL"}, {"measurement": "proportion of KDR+CD235a/b+ cells", "setting": "CHOPWT10 human iPSC line; 2 ng/mL Activin A, CHOPWT10 human iPSC line, day 4", "result": "greater than 30%"}, {"measurement": "proportion of KDR+CD235a/b+ cells at day 4 of differentiation", "setting": "CHOPWT10 human iPSC line; 2 or 4 ng/mL Activin A within 0 to 10 ng/mL titration, with BMP4 10 ng/mL and FGF2 5 ng/mL, days 1 to 4", "result": "highest proportion"}]}]}
